Blank lines part the entries; values can stand above or below the compound they belong to. Numbered stars: 1 amine (or outer) side, 2 acyl side, 3 side chain; on linkers, the order of the positions; unused ones are H or OH. Square brackets hold non-standard residues; d marks the D form. Peptide text beside a SMILES is read from it. * marks the point of attachment. DOTA = O=C(O)CN1CCN(CC(=O)O)CCN(CC(=O)*)CCN(CC(=O)O)CC1; γGlu = O=C(O)[CH](CCC(=O)[*:2])N[*:1]; X3 = O=C(C1CCC(CN[*:1])CC1)[*:2]; CO = O=C([*:1])[*:2]; Ahx = NCCCCCC(=O)O
What was measured:
[1] = In vivo PET imaging in healthy animals without tumor; design: species or system mice
Experimental: We compared the [^68Ga]-PSMA-11 and the [^68Ga]-PSMA-1-DOTA ligand in healthy animals without tumor. Equal doses of radioactivity were injected into the same animal (a single animal was used to limit variability). We injected the [^68Ga]-PSMA-1-DOTA first to prevent blockade of its binding by the other ligand, waited 24 hours and then injected the other radiolabeled ligand.

[2] = system: PC3pip tumors that overexpress PSMA; test: In vivo PET imaging in animals harboring PC3pip tumors
Excerpt: We also made a similar comparison using animals harboring PC3pip tumors that overexpress PSMA.

[3] = system: PSMA-expressing cancer tissue; test: Standard uptake values (SUVs) by PET and blood clearance, general statements; format: in vivo; details: PET
Experimental: The term “standardized uptake value (SUV)” refers to a measure of radioactivity in a specific area of interest relative to an idealized even distribution of radioactive material throughout the body. SUV is used historically by nuclear medicine professionals to distinguish between “normal” and “abnormal” levels of uptake. Preferably, uptake is measured by positron emission tomography (PET) imaging or other imaging modalities.
The PSMA targeted compounds described herein include a PSMA ligand, e.g., PSMA-1, conjugated to a metal chelating agent or chelated metal nuclide. The PSMA targeted compounds described herein can selectively recognize PSMA-expressing tumors, cancer cells, and/or cancer neovasculature in vivo and be used to deliver at least one chelated metal nuclide, such as radionuclide, to the PSMA-expressing tumors, cancer cells, and/or cancer neovasculature to treat and/or detect the PSMA-expressing tumors, cancer cells, and/or cancer neovasculature in a subject. The PSMA ligand can target and/or increase the uptake of the metal chelating agent or chelated metal nuclide in PSMA expressing cancer cells compared to untargeted metal chelated agents or chelated metal nuclides administered to a subject and decrease non-PSMA target toxicity of the metal nuclide administered (e.g., systemically) to a subject.

[4] = Stability assay: incubation in plasma or PBS, HPLC; format: in vitro ADME; details: 100% mouse plasma, PBS or 100% human plasma at 37° C., for 7 days
Experimental: (§1) PSMA-1-DOTA was incubated in 100% mouse Plasma, PBS, or 100% human plasma at 37° C. […] And stability has been monitored and confirmed for at least 7 days frozen in isotonic sterile saline.

[5] = Storage stability (lyophilized powder; frozen in saline); format: physicochemical
Experimental: as §1

PSMA = biological target: T1, PSMA (Homo sapiens, UniProt Q04609); test: Competition binding assay using [3H]-ZJ24 with PC3pip cells; details: approximately, compared to PSMA-11, PSMA I&T and ZJ24 ligands, FIG. 3
T1 construct: expressed in transfected cells; host or cells: PC3pip cells
T1 sequence (Q04609 whole entry): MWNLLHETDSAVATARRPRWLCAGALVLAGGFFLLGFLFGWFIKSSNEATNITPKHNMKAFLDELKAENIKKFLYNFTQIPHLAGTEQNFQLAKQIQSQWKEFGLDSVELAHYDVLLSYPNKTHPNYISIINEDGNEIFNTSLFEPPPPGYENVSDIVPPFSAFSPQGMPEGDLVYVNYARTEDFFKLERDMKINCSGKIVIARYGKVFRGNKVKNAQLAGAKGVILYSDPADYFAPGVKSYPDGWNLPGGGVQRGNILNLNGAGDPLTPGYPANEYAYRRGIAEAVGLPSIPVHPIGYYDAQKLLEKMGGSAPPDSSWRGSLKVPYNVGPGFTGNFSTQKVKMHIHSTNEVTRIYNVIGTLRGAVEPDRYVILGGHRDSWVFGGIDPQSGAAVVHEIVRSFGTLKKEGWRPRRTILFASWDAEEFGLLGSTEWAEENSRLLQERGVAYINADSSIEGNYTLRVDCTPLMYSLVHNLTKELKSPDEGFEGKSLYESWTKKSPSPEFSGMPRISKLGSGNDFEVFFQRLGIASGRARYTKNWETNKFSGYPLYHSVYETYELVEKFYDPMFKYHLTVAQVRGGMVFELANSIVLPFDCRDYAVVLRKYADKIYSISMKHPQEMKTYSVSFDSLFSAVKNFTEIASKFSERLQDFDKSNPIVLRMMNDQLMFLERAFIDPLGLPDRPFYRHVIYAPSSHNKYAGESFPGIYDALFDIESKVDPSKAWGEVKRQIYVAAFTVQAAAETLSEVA
Excerpt: We first conjugated a macrocyclic DOTA to our PSMA-1 ligand enabling us to label it with [^68Ga]. We then compared the macrocyclic-conjugated PSMA-1 ligand to PSMA-11 ligand, PSMA I&T ligand, and ZJ24 ligand in a competitive radio-binding assay using [^3H]-ZJ24 with PC3pip cells. FIG. 3 illustrates that the PSMA-1 ligand conjugated to DOTA, the PSMA-1 ligand has approximately 4-5 fold higher affinity for PSMA.

[6] = PC3pip tumor bearing animals, PET

SMILES: O=C([O-])CN(CCN(CC(=O)[O-])Cc1cc(CCC(=O)NCCCCCC(=O)NCCCC[C@H](NC(=O)N[C@@H](CCC(=O)O)C(=O)O)C(=O)O)ccc1[O-])Cc1cc(CCC(=O)O)ccc1[O-].[68Ga+3].[OH3+] [[^68Ga]-PSMA-11]
uptake in the salivary glands ([1]; healthy animals without tumor, equal doses of radioactivity, PET): significant uptake
kidney uptake [2, 6]: significant uptake
uptake in the PC3pip tumor [2, 6]: significant uptake
uptake into lacrimal glands [2, 6]: significant uptake
uptake into salivary glands [2, 6]: significant uptake

higher affinity for PSMA (PSMA): 4-5 fold
SMILES: NC(=O)C(CCCCNC(=O)CN1CCN(CC(=O)O)CCN(CC(=O)O)CCN(CC(=O)O)CC1)NC(=O)C(CCC(=O)O)NC(=O)C(CCC(=O)O)NC(=O)C(CCC(=O)O)NC(=O)CCCCCNC(=O)C1CCC(CNC(=O)CCC(NC(=O)NC(CCC(=O)O)C(=O)O)C(=O)O)CC1 (stereo not shown) [PSMA-1-DOTA] ({Glu-CO-γGlu}-[X3][Ahx]EEEK(DOTA)-NH2; configuration not given here)
renal clearance ([1]; mouse, in vivo): faster renal clearance
renal retention of the probe ([1]; mouse, in vivo): less renal retention
SUVs in salivary glands, lacrimal glands and non-PSMA expressing muscle tissue versus SUVs in PSMA-expressing cancer [3]: substantially lower SUVs
degradation/purity by HPLC [4]: No decline in the product
stability frozen in isotonic sterile saline ([5]; frozen): at least 7 days
stability as a lyophilized powder ([5]; long term storage): stability for long term storage

SMILES: NC(=O)C(CCCCNC(=O)CN1CCN(CC(=O)O)CCN(CC(=O)O)CCN(CC(=O)O)CC1)NC(=O)C(Cc1ccc(O)cc1)NC(=O)C(CCC(=O)O)NC(=O)C(CCC(=O)O)NC(=O)C(CCC(=O)O)NC(=O)CCCCCNC(=O)CCC(NC(=O)NC(CCC(=O)O)C(=O)O)C(=O)O (stereo not shown) [JB-1498] ({Glu-CO-γGlu-Ahx}-EEEYK(DOTA)-NH2; configuration not given here)
SUVs in salivary glands, lacrimal glands and non-PSMA expressing muscle tissue versus SUVs in PSMA-expressing cancer [3]: substantially lower SUVs

SMILES: NC(=O)[C@H](CCCCNC(=O)CN1CCN(CC(=O)O)CCN(CC(=O)O)CCN(CC(=O)O)CC1)NC(=O)[C@@H](CCC(=O)O)NC(=O)[C@@H](CCC(=O)O)NC(=O)[C@@H](CCC(=O)O)NC(=O)CCCCCNC(=O)C1CCC(CNC(=O)CC[C@H](NC(=O)N[C@@H](CCC(=O)O)C(=O)O)C(=O)O)CC1 (stereo partly shown) [[^68Ga]-PSMA-1-DOTA, metal not drawn] ({Glu-CO-γGlu}-[X3][Ahx][dE][dE][dE]K(DOTA)-NH2)
uptake in the salivary glands ([1]; mouse, in vivo): none
kidney uptake ([2]; mouse, in vivo): less kidney uptake
uptake into salivary glands ([2]; mouse, in vivo): no uptake

— patent publication US11998620B2, “PSMA targeted compounds and uses thereof” (CASE WESTERN RESERVE UNIVERSITY, priority 2021, dated 2024)
